The record followed here is patent US5976495A, “Peptide derived radionuclide chelators” (Resolution Pharmaceuticals, Inc., priority 1996, dated 1999).

The test system of the data set is focal inflammation in the leg (zymosan-injected left hindleg). Format: in vivo, male Wistar rats. The following applies: rat; for Fluid:Blood (inflammatory exudate:blood) / Inflam:Uninfl (inflamed:uninflamed muscle, target to background ratio): i.v. via tail vein, 30 minutes, average of two rats; for Inflam:Uninfl (inflamed:uninflamed muscle, target to background ratio): corrected for residual dose in the tail; for GI Tract (% dose) / Liver (% dose) / Urine (% dose): in vivo, iv. As to the method: Rat inflammation studies were performed as follows.
Serial whole-body scintigrams were acquired at 30 minutes.

No end group written: not given here. *: point of attachment. Acm = CC(=O)NC*

In the case of “N,N-dibenzylGly-Ser-Cys(Acm)-Gly-Thr-Lys-Pro-Pro-Arg ({N,N‑dibenzyl}-GSC(Acm)GTKPPR)”, the “Fluid:Blood (inflammatory exudate:blood)” value is given as 0.4; the “Inflam:Uninfl (inflamed:uninflamed muscle, target to background ratio)” value is on record as 3.7; the “GI Tract (% dose)” value worked out at 7.5 % dose; the “Liver (% dose)” value turned out to be 2.3 % dose. For the same substance, the “Urine (% dose)” value is reported as 55.1 % dose.

In the case of “N,N-dimethylGly-Ser-Cys(Acm)-Gly-Thr-Lys-Pro-Pro-Arg ({N,N‑dimethyl}-GSC(Acm)GTKPPR)”, the “Fluid:Blood (inflammatory exudate:blood)” value worked out at 1.9; the “Inflam:Uninfl (inflamed:uninflamed muscle, target to background ratio)” value was 5.3; the “GI Tract (% dose)” value worked out at 2.8 % dose; the “Liver (% dose)” value was found to be 2.4 % dose. Also, the “Urine (% dose)” value amounted to 63.5 % dose.

As to “N,N-dimethylGly-Thr-Cys(Acm)-Gly-Thr-Lys-Pro-Pro-Arg ({N,N‑dimethyl}-GTC(Acm)GTKPPR)”, the “Fluid:Blood (inflammatory exudate:blood)” value was determined as 1.6; the “Inflam:Uninfl (inflamed:uninflamed muscle, target to background ratio)” value came out at 4.6; the “GI Tract (% dose)” value came to 2.5 % dose; the “Liver (% dose)” value stood at 2.4 % dose.
